What was measured:
[1] = molecular target: T1, human PTK7, full length, on the cell surface (human, UniProt Q13308 31-1070); assay: flow cytometry (MFI) on Wilms' tumor cell line G-401
T1 construct: also called CCK4; protein tyrosine kinase 7
T1 sequence: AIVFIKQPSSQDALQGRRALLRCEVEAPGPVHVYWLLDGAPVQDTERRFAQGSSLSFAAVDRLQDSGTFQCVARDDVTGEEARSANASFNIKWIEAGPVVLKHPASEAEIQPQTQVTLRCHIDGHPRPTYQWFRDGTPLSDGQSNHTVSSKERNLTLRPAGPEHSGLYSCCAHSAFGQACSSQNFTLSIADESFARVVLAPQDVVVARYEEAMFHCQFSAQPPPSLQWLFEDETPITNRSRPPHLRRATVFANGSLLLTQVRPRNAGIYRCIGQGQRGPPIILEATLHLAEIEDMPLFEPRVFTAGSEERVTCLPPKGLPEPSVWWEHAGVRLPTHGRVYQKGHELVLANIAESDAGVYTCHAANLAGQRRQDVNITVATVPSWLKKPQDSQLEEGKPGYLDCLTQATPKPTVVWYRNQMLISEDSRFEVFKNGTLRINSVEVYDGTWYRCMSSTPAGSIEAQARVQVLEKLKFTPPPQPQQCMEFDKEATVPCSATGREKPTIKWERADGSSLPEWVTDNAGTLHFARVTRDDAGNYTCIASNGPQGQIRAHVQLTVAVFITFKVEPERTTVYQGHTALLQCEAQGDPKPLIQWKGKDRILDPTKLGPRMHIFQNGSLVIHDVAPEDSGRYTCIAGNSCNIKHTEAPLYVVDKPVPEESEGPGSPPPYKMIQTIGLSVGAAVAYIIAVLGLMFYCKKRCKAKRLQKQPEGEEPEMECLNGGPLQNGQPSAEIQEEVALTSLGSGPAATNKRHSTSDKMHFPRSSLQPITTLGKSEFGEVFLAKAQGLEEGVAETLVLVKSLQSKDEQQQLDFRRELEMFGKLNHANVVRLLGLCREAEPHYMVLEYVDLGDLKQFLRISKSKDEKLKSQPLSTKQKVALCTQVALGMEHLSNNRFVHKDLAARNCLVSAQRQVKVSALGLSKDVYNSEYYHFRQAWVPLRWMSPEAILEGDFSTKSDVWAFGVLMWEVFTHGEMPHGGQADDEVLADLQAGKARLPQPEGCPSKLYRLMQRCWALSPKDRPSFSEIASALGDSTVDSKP
Experimental: The nephroblastoma Wilms' tumor cell line G-401 (ATCC Acc No. CRL-1441) was tested for binding of the HuMAb anti-PTK7 human monoclonal antibodies 12C6 and 7C8 at different concentrations. Binding of the anti-PTK7 human monoclonal antibodies was assessed by incubating 1×10⁵ cells with antibody at a starting concentration of 30 μg/ml and serially diluting the antibody at a 1:10 dilution. The cells were washed and binding was detected with a PE-labeled anti-human IgG Ab. Flow cytometric analyses were performed using a FACScan flow cytometry (Becton Dickinson, San Jose, Calif.). The anti-PTK7 monoclonal antibodies 12C6 and 7C8 bound to the nephroblastoma Wilms' tumor cell line in a concentration dependent manner, as measured by the mean fluorescent intensity (MFI) of staining. The EC₅₀ values for the anti-PTK7 monoclonal antibodies 12C6 and 7C8 was 4.0 nM and 3.4 nM, respectively.

[2] = molecular target: T1, human PTK7, full length, on the cell …; assay: cell-based or functional assay
[3] = molecular target: T2, recombinant extracellular domain of PTK7 (human, UniProt Q13308 31-704); assay: ELISA (legend of FIG. 15; members named in paragraph 547)
T2 construct: also called PTK7 extracellular domain
T2 sequence: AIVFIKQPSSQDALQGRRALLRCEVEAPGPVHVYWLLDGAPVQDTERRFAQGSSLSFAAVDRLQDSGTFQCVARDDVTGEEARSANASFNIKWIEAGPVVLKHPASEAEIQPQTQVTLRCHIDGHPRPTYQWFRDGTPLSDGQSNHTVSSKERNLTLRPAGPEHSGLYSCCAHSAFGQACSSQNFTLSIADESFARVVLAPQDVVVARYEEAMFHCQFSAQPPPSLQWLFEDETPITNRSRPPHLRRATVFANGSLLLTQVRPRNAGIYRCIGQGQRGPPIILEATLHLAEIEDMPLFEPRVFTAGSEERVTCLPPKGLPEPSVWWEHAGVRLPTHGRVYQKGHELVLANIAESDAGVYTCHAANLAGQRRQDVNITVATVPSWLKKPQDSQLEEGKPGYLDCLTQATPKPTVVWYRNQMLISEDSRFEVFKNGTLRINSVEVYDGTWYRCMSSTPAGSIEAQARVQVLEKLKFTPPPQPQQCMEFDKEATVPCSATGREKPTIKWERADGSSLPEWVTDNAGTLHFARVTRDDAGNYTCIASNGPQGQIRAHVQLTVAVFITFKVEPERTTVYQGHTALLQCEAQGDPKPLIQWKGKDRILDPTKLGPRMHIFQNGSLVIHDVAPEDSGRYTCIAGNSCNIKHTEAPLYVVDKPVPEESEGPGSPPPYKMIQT
Experimental: The binding of anti-PTK7 antibodies was also assessed by standard ELISA to examine the specificity of binding for PTK7.
Recombinant extracellular domain of PTK7 was tested for binding against the anti-PTK7 human monoclonal antibodies 3G8, 4D5, 12C6 and 12C6a at different concentrations. Standard ELISA procedures were performed. The anti-PTK7 human monoclonal antibodies were added at a starting concentration of 10 μg/ml and serially diluted at a 1:2 dilution. Goat-anti-human IgG (kappa chain-specific) polyclonal antibody conjugated with horseradish peroxidase (HRP) was used as secondary antibody. Each of the anti-PTK7 human monoclonal antibodies 3G8, 4D5, 12C6 and 12C6a bound to PTK7.

[4] = molecular target: T1, human PTK7, full length, on the cell …; assay: flow cytometry (MFI) on cancer cell lines that express cell surface PTK7, antibody at 10 ug/ml
Experimental: Anti-PTK7 antibodies were tested for binding to a variety of cancer cell lines by flow cytometry.
Binding of the 3G8, 12C6a, 4D5 and 12C6 anti-PTK7 human monoclonal antibodies to a panel of cancer cell lines was assessed by incubating cancer cell lines with anti-PTK7 human monoclonal antibodies at a concentration of 10 μg/ml. The cancer cell lines that were tested were A-431 (ATCC Acc No. CRL-1555), Wilms tumor cells G-401 (ATCC Acc No. CRL-1441), Saos-2 (ATCC Acc No. HTB-85), SKOV-3 (ATCC Acc No. HTB-77), PC3 (ATCC Acc No. CRL-1435), DMS 114 (ATCC Acc No. CRL-2066), ACHN (ATCC Ace No. CRL-1611), LNCaP (ATCC Acc No. CRL-1740), DU 145 (ATCC Acc No. HTB-81), LoVo (ATCC Acc No. CCL-229) and MIA PaCa-2 (ATCC Acc No. CRL-1420). An isotype control antibody was used as a negative control. The cells were washed and binding was detected with a FITC-labeled anti-human IgG Ab. Flow cytometric analyses were performed using a FACScan flow cytometry (Becton Dickinson, San Jose, Calif.). The anti-PTK7 monoclonal antibodies 3G8, 12C6a, 4D5 and 12C6 bound to the cancer cell lines A-431, Wilms tumor cells G-401, Saos-2, SKOV-3, PC3, DMS 114, ACHN, LNCaP, DU 145, LoVo and MIA PaCa-2, as measured by the mean fluorescent intensity (MFI) of staining.

Binder	EC50 [1] [nM]	EC50 of the decrease in 3H-thymidine incorporation, Hum-Zap internalization assay, A-431 cells [2] [nM]	EC50 of the decrease in 3H-thymidine incorporation, Hum-Zap internalization assay, PC3 tumor cells [2] [nM]	EC50 of the decrease in 3H-thymidine incorporation, Hum-Zap internalization assay, Wilms' tumor cells G-401 [2] [nM]	binding result [3]	binding result [4]
anti-PTK7 human monoclonal antibody 7C8 (antibody, V domains shown, Human IgG kappa from a hybridoma) VH: QVQLVESGGGVVQPGRSLRLSCAASGFTFSSYGMHWVRQAPGKGLEWVAVIWDDGSNKYYVDSVKGRFTISRDNSKNTLYLQMNSLRAEDTAVYYCARDDYYGSGSFNSYYGTDVWGQGTTVTVSS VL: EIVLTQSPATLSLSPGERATLSCRASQSVSIYLAWYQQKPGQAPRLLIYDASNRATGIPARFSGSGSGTDFTLTISSLEPEDFAVYYCQQRSNWPPFTFGPGTKVDIK	3.4	0.2	0.3	0.2		
anti-PTK7 human monoclonal antibody 12C6 (antibody, V domains shown, Human IgG kappa from a hybridoma) VH: EVQLVQSGGGLVHPGGSLRLSCAGSGFTFSTYLMYWVRQAPGKTLEWVSAIGSGGDTYYADSVKGRFTISRDNAKNSLYLQMNSLRAEDMAVYYCARGLGYWGQGTLVTVSS VL: not shown	4	0.2	0.3	0.2		
anti-PTK7 human monoclonal antibody 3G8 (antibody, V domains shown) VH: QVQLVESGGGVVQPGRSLRLSCAASGFIFSNYAMHWVRQAPGKGLEWVAVISYDGNNKYYADSVKGRFTISRDNSKNTLYLQMNSLRAEDTAVYYCAREVWSIDNWGQGTLVTVSS VL: DIQMTQSPSSLSASVGDRVTITCRASQGISSWLAWYQQKPEKAPKSLIYAASSLQSGVPSRFSGSGSGTDFTLTISSLQPEDFATYYCQQYNSYPRTFGQGTKVEIK				0.6		
anti-PTK7 human monoclonal antibody 12C6a (antibody, V domains shown, Same heavy chain variable region as 12C6, different light chain; Human IgG kappa from a hybridoma) VH: EVQLVQSGGGLVHPGGSLRLSCAGSGFTFSTYLMYWVRQAPGKTLEWVSAIGSGGDTYYADSVKGRFTISRDNAKNSLYLQMNSLRAEDMAVYYCARGLGYWGQGTLVTVSS VL: DIQMTQSPSSLSASVGDRVTITCRASQGISSWLAWYQQKPEKAPKSLIYAASSLQSGVPSRFSGSGSGTDFTLTISSLQPEDFATYYCQQYNSYPYTFGQGTKLEIK					binds	binds
anti-PTK7 human monoclonal antibody 4D5 (antibody, V domains shown) VH: QVQLVESGGGVVQPGRSLRLSCAASGFTFSSYAFHWVRQAPGKGLEWVAVISYDGSIKYYADSVKGRFTISRDNSKNTLYLQMNSLRAEDTAVYYCARTYYFDYWGQGTLVTVSS VL: EIVLTQSPDFQSVTPKEKVTITCRASQSIGSSLHWYQQKPDQSPKLLIKYASQSFSGVPSRFSGSGSGTDFTLTINSLEAEDAAAYYCHQSSSLPITFGQGTRLEIK				0.3		
